We go through nine molecules from patent US20090035266A1 (US Dept. of Health and Human Services, published 2009).

In assay [1] the target is T1, HLA-A2 molecules on T2 cells (human).
T1 construct: whole, on cells; MHC class I molecule on the cell surface; also called HLA-A2.1
The assay can be described thus: T2 cells loaded overnight with 12.5 µg/ml peptide, washed, brefeldin A, surface HLA-A2 by flow cytometry (FIG. 1B). The procedure:
FIGS. 1A and 1B are line graphs showing the binding of native PAGE4 peptides and their agonist peptides to HLA-A2 molecules. Peptides were analyzed for binding to T2 cell line as described in Example 1. For the results presented in FIG. 1A, peptides were used at concentrations of 0 to 25 μg/ml. P16 peptide (◯), P16-1, P16-2 (▴), P84 (□) and P84-1 (▪), positive control (MUC-1 peptide) (+) and negative control (HLA-A3 binding peptide) (X). Results are expressed in mean fluorescence intensity (MFI). FIG. 1B presents a comparison of the stability of HLA-A2 peptide complexes of PAGE4 native and agonist peptides. T2 cells were incubated overnight with P16 peptide (◯), P16-1, P16-2 (▴), P84 (□) and P84-1 (▪) peptides at a concentration of 12.5 μg/ml and then were washed free of unbound peptide and incubated with brefeldin A to block delivery of new class 1 molecules to the cell surface. At the indicated times, cells were stained for the presence of surface peptide-HLA-A2 complexes. Results are expressed in relative percentage of binding compared with 100% at time 0.
The analogues of P16 were designated P16-1 and P16-2, and the analogue of P84 was designated as P84-1. These peptides bound to HLA-A2 at higher levels than their native peptides. Studies were then conducted to examine the ability of these peptides to bind HLA-A2 at various concentrations. […] Studies were then undertaken to examine the stability of the peptide-MHC complex for the peptides P16, P84, P16-1, P16-2 and P84-1. Each peptide was incubated with T2 cells overnight, the unbound peptides were washed off, and the cells were then incubated with Brefeldin A to block delivery of new class I molecules to the cell surface. Cells were analyzed for the presence of peptide-HLA-A2 complexes at various time points.
A general note: In flow cytometry, cells or beads pass a laser one at a time.

For assay [2], the target named is T1, HLA-A2 molecules on T2 cells. The assay can be described thus: T2 cell HLA-A2 upregulation assay, flow cytometry, peptide 25 µg/ml. The protocol: (§1) The primary amino acid sequence of human PAGE4 was analyzed for consensus motifs for novel HLA-A2 binding peptides. Two 10-mer peptides (P16-25 designated as P16 and P59-68 designated as P59) and one 9-mer peptide (P84-92 designated as P84) were identified and evaluated (Table 1). […] For this reason, five different analogues of native peptides were synthesized and were investigated for their binding ability to HLA-A2-positive T2 cells along with the native P16, P59 and P84 peptides. A MUC-1 peptide and a CEA HLA-A3 binding peptide (CAP-7) were used as a positive and negative control, respectively (Tsang et al., J Natl Cancer Inst 1995; 87:982-90).
Peptides were used at a concentration of 25 μg/ml. Amino acids are shown by the single-letter code. Substitution amino acids are indicated in bold italic and underlined. MUC-1 peptide is an HLA-A2 binding peptide and CAP-7 is an HLA-A3 binding CEA peptide. ^aResults are expressed in mean fluorescence intensity (MFI). Values in parentheses are fold increases as compared with the negative control.

The target is the same in assay [3]. The assay can be described thus: T2 cell HLA-A2 upregulation assay, flow cytometry. The procedure:
as §1

With KTPPNPKHA (Synthetic peptide; also called P84-92) [P84 (native) PAGE4 peptide, amino acids 84-92], in assay [1], the “percent of peptide-HLA-A2 complexes remaining over 8 hours” value is greater than 43.6%. In addition, in assay [2], the “T2 binding (MFI)” value was found to be 270 MFI and the “fold increase as compared with the negative control” value (shortened to “fold increase”) amounted to 1.04 fold.
Take VEGDCQEMDL (Synthetic peptide; also called P59-68) [P59 (native) PAGE4 peptide, amino acids 59-68]: in assay [3], the binding result was “no binding (tested: 25 µg/ml)”. For the same molecule, in assay [2], the “T2 binding (MFI)” value was determined as 246 MFI and the “fold increase” value stood at 0.9 fold.
Regarding VLGDCQEMDL (also called P59-1) [P59 (60L) PAGE4 analogue peptide], in assay [2], the “T2 binding (MFI)” value stood at 293 MFI and the “fold increase” value was determined as 1.1 fold.
Consider YLGDCQEMDV (also called P59-2) [P59 (59Y/60L/68V) PAGE4 analogue peptide], for which, in assay [2], the “T2 binding (MFI)” value turned out to be 384 MFI and the “fold increase” value is 1.5 fold.
For the molecule YLPPNPKHV (also called P84-1) [P84 (84Y/85L/92V) PAGE4 agonist peptide], the “percent of peptide-HLA-A2 complexes remaining over 8 hours” value in assay [1] is greater than 43.6%. In assay [2], the “T2 binding (MFI)” value was determined as 546 MFI and the “fold increase” value is 2.1 fold.

B1: P16 (native) PAGE4 peptide, amino acids 16-25 (peptide)
peptide: QEAPDVVAFV
notes: Synthetic peptide, purity >95%; also called P16-25
In the case of B1, in assay [2], the “T2 binding (MFI)” value is 309 MFI and the “fold increase” value amounted to 1.2 fold.
On to QLAPDVVAFV [P16 (17L) PAGE4 agonist peptide], for which the “percent of peptide-HLA-A2 complexes remaining over 8 hours” value in assay [1] was greater than 43.6%. For the same molecule, in assay [2], the “T2 binding (MFI)” value came out at 827 MFI and the “fold increase” value is 3.2 fold.
Turning to YLAPDVVAFV (also called P16-2) [P16 (16Y/17L) PAGE4 agonist peptide], in assay [1], the “percent of peptide-HLA-A2 complexes remaining over 8 hours” value was greater than 43.6%. Besides, in assay [2], the “T2 binding (MFI)” value came out at 790 MFI and the “fold increase” value worked out at 3 fold.

B2: MUC-1 peptide (peptide)
peptide: ALWGQDVTSV
notes: Positive control of the T2 assay; also called positive control
Regarding B2, in assay [2], the “T2 binding (MFI)” value was found to be 710 MFI and the “fold increase” value is 2.7 fold.
